Data: patent US20100055117A1 (published 2010)

How the values were obtained:
[1] = molecular target: T1, FRL (murine FMNL1 homologue) peptide on HLA-A*02:01 (human); test: killing
T1 peptide: RLPERMNTL

[2] = molecular target: T2, FMNL1/KW13 peptide on HLA-A*02:01 (human); test: multimer staining
T2 peptide: RLPERMTTL

binding result [2]: recognises
B1: TCR of T cell clone SC22 (Vα14J41; Vβ14J2.5) (TCR)
alpha TRAV38-2/DV8*01; Vα14 TRAJ41*01; J41 CDR3: AYENSGYALNF
beta TRBV27*01; Vβ14 TRBJ2-5*01; Jβ2.5 CDR3: ASSFLGETQYF
binding result [1]: recognises
